Laboratory results published in paper PMC10786891, “Massively parallel profiling of RNA-targeting CRISPR-Cas13d”.
Positions count from the first letter of the chain named. In names and notes the source's numbering stands.

T1: EsCas13d, nuclease-dead (Eubacterium siraeum, UniProt B0MS50, R295A;H300A;R849A;H854A)
T1 sequence: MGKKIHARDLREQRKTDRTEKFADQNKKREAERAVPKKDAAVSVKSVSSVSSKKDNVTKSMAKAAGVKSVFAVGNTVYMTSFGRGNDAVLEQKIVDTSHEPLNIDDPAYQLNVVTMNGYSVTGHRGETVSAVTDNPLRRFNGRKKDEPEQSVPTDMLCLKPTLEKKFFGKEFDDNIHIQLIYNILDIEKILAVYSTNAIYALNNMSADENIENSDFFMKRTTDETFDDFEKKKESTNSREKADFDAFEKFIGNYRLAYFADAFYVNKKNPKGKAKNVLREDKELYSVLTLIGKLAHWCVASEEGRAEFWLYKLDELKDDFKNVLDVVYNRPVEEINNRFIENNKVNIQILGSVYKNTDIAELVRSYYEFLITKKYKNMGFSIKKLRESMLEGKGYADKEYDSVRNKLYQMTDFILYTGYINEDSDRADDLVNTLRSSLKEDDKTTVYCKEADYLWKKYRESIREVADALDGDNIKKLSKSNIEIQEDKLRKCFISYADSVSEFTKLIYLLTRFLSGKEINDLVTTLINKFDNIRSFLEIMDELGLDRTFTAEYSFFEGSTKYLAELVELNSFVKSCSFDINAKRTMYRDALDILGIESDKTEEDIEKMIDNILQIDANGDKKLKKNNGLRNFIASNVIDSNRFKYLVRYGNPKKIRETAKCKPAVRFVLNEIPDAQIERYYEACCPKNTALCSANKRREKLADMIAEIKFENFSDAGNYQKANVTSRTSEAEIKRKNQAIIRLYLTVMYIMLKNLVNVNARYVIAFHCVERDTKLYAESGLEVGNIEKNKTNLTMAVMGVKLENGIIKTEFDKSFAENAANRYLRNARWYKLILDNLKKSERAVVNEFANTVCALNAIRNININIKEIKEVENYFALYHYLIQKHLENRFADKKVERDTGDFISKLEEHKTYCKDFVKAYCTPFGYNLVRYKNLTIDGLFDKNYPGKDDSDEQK

B1: target 3 insG 3' of 9,insG 3' of 8 (mixed)
RNA 1: CACCCGUGCAAAAUUGCAGGGGUCUAAAACGACCUGAAUAUUUCAGAUCAAA
RNA 2: GGGAAUGGAUCCACAUCUACGAAUUCGUUUUUGAUCUGAAAUAGUGUCAGGUCUGCAGAUCGGAAGAGCACACGU
B2: target 3 U2C,A5C (mixed)
RNA 1: B1 RNA 1
RNA 2: GGGAAUGGAUCCACAUCUACGAAUUCGUUUUUGAUCUGAAAUAUUCCGGCCUGCAGAUCGGAAGAGCACACGU
B3: target 3 insA 3' of 4,insU 3' of 3 (mixed)
RNA 1: B1 RNA 1
RNA 2: B1 RNA 2 with G44U, G46C, U47A, C48G, G51U
B4: target 3 insG 3' of 6,insU 3' of 5 (mixed)
RNA 1: B1 RNA 1
RNA 2: B1 RNA 2 with G44U, G46C, U47G, C48A, A49U
B5: target 3 C6A,U8G (mixed)
RNA 1: B1 RNA 1
RNA 2: B2 RNA 2 with U44G, C46A, C47A, C50U
B6: target 3 insC 3' of 13,insU 3' of 5 (mixed)
RNA 1: B1 RNA 1
RNA 2: B1 RNA 2 with A40C, U42A, A43U, G44A, G46U, U47C, C48A, A49U
B7: target 3 insG 3' of 6,insU 3' of 1 (mixed)
RNA 1: B1 RNA 1
RNA 2: B1 RNA 2 with G44U, G46C, U47G, C48A, A49G, G51U, U52C, C53U
B8: target 3 A18G,U22G (mixed)
RNA 1: B1 RNA 1
RNA 2: B2 RNA 2 with U30G, A34G, C47A, C50U
B9: target 3 complement block 1-6 (mixed)
RNA 1: B1 RNA 1
RNA 2: B2 RNA 2 with C46G, C47U, G48C, G49C, C50A, C51G
B10: target 3 insA 3' of 8,insA 3' of 8 (mixed)
RNA 1: B1 RNA 1
RNA 2: B1 RNA 2 with G44U, U45A, G46A
B11: target 3 U2A,A5U (mixed)
RNA 1: B1 RNA 1
RNA 2: B2 RNA 2 with C47U, C50A
B12: target 3 insA 3' of 21,insA 3' of 4 (mixed)
RNA 1: B1 RNA 1
RNA 2: GGGAAUGGAUCCACAUCUACGAAUUCGUUUUAUGAUCUGAAAUAUUCAGAGUCUGCAGAUCGGAAGAGCACACGU
B13: target 3 insG 3' of 8,insA 3' of 2 (mixed)
RNA 1: B1 RNA 1
RNA 2: B1 RNA 2 with G44U, U45G, G46U, U47C, C48A, A49G, G51U, U52A
B14: target 3 A11G,U22A (mixed)
RNA 1: B1 RNA 1
RNA 2: B2 RNA 2 with U30A, A41G, C47A, C50U
B15: target 3 insC 3' of 9,insA 3' of 3 (mixed)
RNA 1: B1 RNA 1
RNA 2: B1 RNA 2 with G44C, G46U, U47C, C48A, A49G, G51A
B16: target 3 insU 3' of 6,insA 3' of 2 (mixed)
RNA 1: B1 RNA 1
RNA 2: B1 RNA 2 with G44U, G46C, C48A, A49G, G51U, U52A
B17: target 3 G4A,A11C (mixed)
RNA 1: B1 RNA 1
RNA 2: B2 RNA 2 with A41C, C47A, G48A, C50U
B18: target 3 insG 3' of 8,insU 3' of 4 (mixed)
RNA 1: B1 RNA 1
RNA 2: B1 RNA 2 with G44U, U45G, G46U, U47C, C48A, A49G, G50U
B19: target 3 insG 3' of 16,insU 3' of 1 (mixed)
RNA 1: B1 RNA 1
RNA 2: GGGAAUGGAUCCACAUCUACGAAUUCGUUUUUGAUCGUGAAAUAUUCAGGUCUUGCAGAUCGGAAGAGCACACGU
B20: target 3 del6,del22 (mixed)
RNA 1: B1 RNA 1
RNA 2: GGGAAUGGAUCCACAUCUACGAAUUCGUUUUGAUCUGAAAUAUUAGGUCUGCAGAUCGGAAGAGCACACGU
B21: target 3 A11C,G14A (mixed)
RNA 1: B1 RNA 1
RNA 2: B2 RNA 2 with G38A, A41C, C47A, C50U
B22: target 3 G19C,U20G (mixed)
RNA 1: B1 RNA 1
RNA 2: B2 RNA 2 with U32G, G33C, C47A, C50U
B23: target 3 insU 3' of 6 (mixed)
RNA 1: B1 RNA 1
RNA 2: GGGAAUGGAUCCACAUCUACGAAUUCGUUUUUGAUCUGAAAUAUUCUAGGUCUGCAGAUCGGAAGAGCACACGU
B24: target 3 insC 3' of 11,insA 3' of 10 (mixed)
RNA 1: B1 RNA 1
RNA 2: B1 RNA 2 with U42C, A43U, G44A, U45A, G46U
B25: target 3 insC 3' of 7,insG 3' of 5 (mixed)
RNA 1: B1 RNA 1
RNA 2: B1 RNA 2 with G44U, G46C, U47C, C48A, A49G
B26: target 3 complement block 2-6 (mixed)
RNA 1: B1 RNA 1
RNA 2: B2 RNA 2 with C46G, C47U, G48C, G49C, C50A
B27: target 3 G4C,U22A (mixed)
RNA 1: B1 RNA 1
RNA 2: B2 RNA 2 with U30A, C47A, G48C, C50U
B28: target 3 insA 3' of 7,insA 3' of 4 (mixed)
RNA 1: B1 RNA 1
RNA 2: B1 RNA 2 with G44U, G46A, U47C, C48A, A49G, G50A
B29: target 3 insG 3' of 9,insG 3' of 6 (mixed)
RNA 1: B1 RNA 1
RNA 2: B1 RNA 2 with G46U, U47C, C48G
B30: target 1 insA 3' of 15,insC 3' of 5 (mixed)
RNA 1: CACCCGUGCAAAAAUGCAGGGGUCUAAAACUGAGCGGAUAACCUCUCUAUGG
RNA 2: GGGAAUGGAUCCACAUCUACGAAUUCGUACCAUAGAGAAGGUUAUCCGCCUCACCGAGAUCGGAAGAGCACACGU
B31: target 1 C2U,G15U (mixed)
RNA 1: B30 RNA 1
RNA 2: GGGAAUGGAUCCACAUCUACGAAUUCGUACCAUAGAUAGGUUAUCCGCUUACCGAGAUCGGAAGAGCACACGU
B32: target 1 insC 3' of 14,insU 3' of 14 (mixed)
RNA 1: B30 RNA 1
RNA 2: B30 RNA 2 with A39C, G40U, U42G, A44U, U45A, C46U, G48C, C49G

Target: T1, EsCas13d, nuclease-dead
Experiment: crRNA (strand 1, pre-loaded); Mg2+; 40 mM Tris-HCl pH 7.5, 150 mM NaCl, 6 mM MgCl2, 1 mM DTT, 0.1% Tween-20, 0.2 mg/ml BSA; 25 C; 10 min per concentration, then washed
Settings: tags: His6-TwinStrep-SUMO cleaved; N-terminal SNAP kept (SNAP-Surface 488); label: 3' end held by stalled T7 RNA polymerase

Row | Binder | Kd [nM]
1 | B1 | 57 ± 6
2 | B2 | 105 ± 18.5
3 | B3 | 72 ± 18.5
4 | B4 | 7.59 ± 0.605
5 | B5 | 65 ± 7.5
6 | B6 | 100 ± 40
7 | B7 | 56.5 ± 15
8 | B8 | 64 ± 10
9 | B9 | 28.5 ± 4.5
10 | B10 | 63 ± 8.5
11 | B11 | 7.35 ± 1.15
12 | B12 | ~81.5
13 | B13 | 67.5 ± 17
14 | B14 | 67 ± 15
15 | B15 | 83.5 ± 14
16 | B16 | 47 ± 14

Row | Binder | Kd [nM]
17 | B17 | 48.5 ± 11.5
18 | B18 | 21.2 ± 4.45
19 | B19 | 74 ± 24
20 | B20 | 19.4 ± 1.9
21 | B21 | 51 ± 10
22 | B22 | ~49
23 | B23 | 17.3 ± 1.35
24 | B24 | 46.5 ± 16.5
25 | B25 | 58.5 ± 9.5
26 | B26 | 58.5 ± 9
27 | B27 | 10.7 ± 1
28 | B28 | 66 ± 12
29 | B29 | 71 ± 10
30 | B30 | 16.7 ± 1.4
31 | B31 | 29 ± 4
32 | B32 | 50 ± 12
